Measurements from paper PMC3229523, “Identification of Lactoferricin B Intracellular Targets Using an Escherichia coli Proteome Chip” (PLoS ONE, 2011).
Ends that are not written are not given here. * marks the point of attachment. Biotin = O=C1N[C@H]2[C@H](CS[C@H]2CCCCC(=O)*)N1

What was measured:
Test in all cases: peptide or protein array; E. coli proteome chip: purified His-tagged proteins printed in duplicate on Fullmoon slides, blocked with 1% BSA; 10 nM N-terminal biotinylated LfcinB with 1% BSA, room temperature, 1 h; detected with DyLight 649-labeled streptavidin, ratio to DyLight 549-labeled anti-His antibody; ProCAT normalisation, local cut-off; triplicate chips
Details in all cases: both partners purified
[1] = target: T1, YhjC (E. coli K-12, UniProt P37641 1-299)
T1 construct: YhjC, E. coli K-12
T1 sequence (looked up): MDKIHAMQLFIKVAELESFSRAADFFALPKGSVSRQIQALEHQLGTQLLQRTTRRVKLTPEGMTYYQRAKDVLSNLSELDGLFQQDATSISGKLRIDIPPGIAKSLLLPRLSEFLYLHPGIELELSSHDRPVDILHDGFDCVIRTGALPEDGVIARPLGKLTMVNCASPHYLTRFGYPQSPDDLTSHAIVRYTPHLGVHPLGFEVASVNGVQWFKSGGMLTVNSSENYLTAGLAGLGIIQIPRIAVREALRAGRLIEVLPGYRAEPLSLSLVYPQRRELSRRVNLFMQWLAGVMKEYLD

[2] = target: T2, FlgC (E. coli K-12, UniProt P0ABX2 1-134)
T2 construct: FlgC, E. coli K-12
T2 sequence (looked up): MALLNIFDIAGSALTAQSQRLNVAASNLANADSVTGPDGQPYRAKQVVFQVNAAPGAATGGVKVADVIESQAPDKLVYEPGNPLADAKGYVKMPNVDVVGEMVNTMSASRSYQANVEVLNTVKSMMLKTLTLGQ

[3] = target: T3, XerB (E. coli K-12, UniProt P68767 1-503)
T3 construct: XerB, E. coli K-12
T3 sequence (looked up): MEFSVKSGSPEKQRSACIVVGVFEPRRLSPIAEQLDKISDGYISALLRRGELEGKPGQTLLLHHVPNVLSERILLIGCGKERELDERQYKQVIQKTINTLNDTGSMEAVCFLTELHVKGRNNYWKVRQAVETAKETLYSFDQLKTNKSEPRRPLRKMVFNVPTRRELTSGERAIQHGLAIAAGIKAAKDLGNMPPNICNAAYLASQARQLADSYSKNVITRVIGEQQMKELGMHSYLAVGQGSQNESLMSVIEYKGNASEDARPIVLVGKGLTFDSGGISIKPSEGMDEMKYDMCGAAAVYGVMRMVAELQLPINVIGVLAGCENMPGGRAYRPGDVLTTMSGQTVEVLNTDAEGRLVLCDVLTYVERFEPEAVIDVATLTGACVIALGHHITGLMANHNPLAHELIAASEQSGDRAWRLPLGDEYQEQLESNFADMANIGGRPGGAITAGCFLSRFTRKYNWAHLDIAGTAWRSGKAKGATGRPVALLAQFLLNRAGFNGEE

[4] = target: T4, adenylate cyclase CyaA (E. coli K-12, UniProt P00936 1-848)
T4 construct: CyaA, adenylate cyclase, E. coli K-12
T4 sequence (looked up): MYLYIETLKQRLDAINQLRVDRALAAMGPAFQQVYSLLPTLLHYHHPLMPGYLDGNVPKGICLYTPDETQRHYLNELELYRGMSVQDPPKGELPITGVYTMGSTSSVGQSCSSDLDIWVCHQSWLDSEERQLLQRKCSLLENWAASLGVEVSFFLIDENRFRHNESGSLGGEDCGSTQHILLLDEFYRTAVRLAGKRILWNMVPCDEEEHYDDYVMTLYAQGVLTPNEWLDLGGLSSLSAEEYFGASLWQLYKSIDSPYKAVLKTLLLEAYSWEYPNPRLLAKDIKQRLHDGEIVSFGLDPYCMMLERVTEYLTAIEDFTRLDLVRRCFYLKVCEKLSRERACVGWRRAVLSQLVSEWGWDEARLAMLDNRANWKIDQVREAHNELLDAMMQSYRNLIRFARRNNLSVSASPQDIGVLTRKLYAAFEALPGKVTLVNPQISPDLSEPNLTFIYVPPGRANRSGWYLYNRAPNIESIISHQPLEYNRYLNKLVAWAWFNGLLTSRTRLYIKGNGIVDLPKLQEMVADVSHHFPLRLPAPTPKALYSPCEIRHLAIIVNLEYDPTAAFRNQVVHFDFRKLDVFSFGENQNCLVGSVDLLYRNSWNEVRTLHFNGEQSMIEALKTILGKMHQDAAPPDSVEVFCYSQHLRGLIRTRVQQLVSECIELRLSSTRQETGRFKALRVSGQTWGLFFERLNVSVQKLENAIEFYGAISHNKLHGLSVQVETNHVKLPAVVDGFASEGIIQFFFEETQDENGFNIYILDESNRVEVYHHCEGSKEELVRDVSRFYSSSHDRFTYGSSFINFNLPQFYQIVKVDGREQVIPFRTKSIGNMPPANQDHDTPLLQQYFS

[5] = target: T5, YgfJ (E. coli K-12, UniProt Q46810 1-192)
T5 construct: YgfJ, E. coli K-12
T5 sequence (looked up): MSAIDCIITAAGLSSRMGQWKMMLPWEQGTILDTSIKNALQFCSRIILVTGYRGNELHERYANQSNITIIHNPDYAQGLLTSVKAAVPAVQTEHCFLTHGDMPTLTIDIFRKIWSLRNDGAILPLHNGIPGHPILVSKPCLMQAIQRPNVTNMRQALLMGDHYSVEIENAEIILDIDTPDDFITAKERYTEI

Measured: binding result

B1: N-terminal biotinylated Lactoferricin B (peptide, UniProt P24627 36-60, looked up)
peptide: Biotin-FKCRRWQWRMKKLGAPSITCVRRAF
modifications: ends and bridges not checked
notes: lactoferricin B (LfcinB), cationic antimicrobial peptide of 25 amino acids; also called biotinylated LfcinB; biotin-labeled LfcinB; source: bought: Kelowna Inc
binds: all assays above
